According to the DeepSol protein solubility set:

Test: soluble on expression in E. coli; label from the status in PepcDB or PDB records

Row | Sequence | soluble on expression in E. coli
1 | MGSDKIHHHHHHMPFKAKDQQGNIVLATDFKSVLEIRKNFPKGSLFCPFCQTLMFPRKRQNTSLHFVHTHPCTTVMEHHPESPEHLQGKLEISKYFQEVYKGMIDAQEAFIEIEHPISEAGKNGRIADVAVVFSTGYRIIGECQLAKIEAADIYQRTQDYYSISADVLWFLGGAADTPENRQAAVDLDVFAGTINFTYST | not soluble
2 | GSHMASDLLELTEDMEKEISNALGHGPQDEILSSAFKLRITRGDIQTLKNYHWLNDEVINFYMNLLVERNKKQGYPALHVFSTFFYPKLKSGGYQAVKRWTKGVNLFEQEIILVPIHRKVHWSLVVIDLRKKCLKYLDSMGQKGHRICEILLQYLQDESKTKRNSDLNLLEWTHHSMKPHEIPQQLNGSDSGMFTCKYADYISRDKPITFTQHQMPLFRKKMVWEILHQQLL | soluble
3 | GMWSYDKITDYLMNNLGEKRYKHSLGVMDTAVRLAGIYNEDTEKARIAGLVHDCAKKLPGEKIIEICTNEGYELGDEDIRNSYLLHGLAGRILAKKVIGIDDEDVLNAIEFHTTGRPNMSLLEKIIYIADYIEPGREFKGVDELRKAADEDLNKALLMSFDNTIKFVIDKGGFLHHNTIEARNYLISRKG | soluble
4 | MGSDKIHHHHHHMSRTLVLFDIDGTLLKVESMNRRVLADALIEVYGTEGSTGSHDFSGKMDGAIIYEVLSNVGLERAEIADKFDKAKETYIALFRERARREDITLLEGVRELLDALSSRSDVLLGLLTGNFEASGRHKLKLPGIDHYFPFGAFADDALDRNELPHIALERARRMTGANYSPSQIVIIGDTEHDIRCARELDARSIAVATGNFTMEELARHKPGTLFKNFAETDEVLASILTPKHS | not soluble
5 | SLSELMGKRVLIIDDNLTSQKILINQAQSWGMFTCAVDSGEKALEWLKRGITFDVAILDMNLPDMNGLELVREIRKQPNCTRLPLIMLSAITETEKTFQSSEEEFVAVLCKPVQRSQLYNVLMEIFSEIPRAPIRVTEG | soluble
6 | MKEYLKEKAHQLPLTPGVYLMKDATDTIIYVGKAKKLKNRVSSYFINSNQHSRKTMRLVKQIIDFDVLHTDTELDALLLECQLIQQYRPRYNRQMNAYEQYSYVSVAVNERQLEIKLLNIPTKENCFGPYSIRRKLNRLKIILDSIYDLVPTNYWHQTFQKESAIPTELFQQELFDFFHNQGREPIKRIAQQMQEAAEKQAFEKAAKLKEDWLFLTRFANQNQRISQANQRDWQLMWLPCQKKIKYYLIYQGLVVATRVVTKQTFQKYSPLELAKKIMPKKPPKTIEHYSKQQVDFLNILYGYISRHPECHLENLTIEKA | not soluble
7 | MSGTKASVFSTILQLMNSLAIRAVADNVRRLLEARRLSQKELAALSGVSQKSINDLLNYGGTVSKEPRLGTIEKLAKGFGIATWQLQIPGLPVDLLQGQMVSKVIENFRDAGTVGRENISRVAESEVRYSLVQNSERGAPR | not soluble
8 | MPKVKTNRVKYPEGWELIEPTLRELDAKMREAETDSHDGKRKCETLWPIFKVSHQRSRYVYDLYYRREEISKELYEFCLDQGYADRSLIAKWKKSGYERLCCLRCIQPRDHNYGTTCVCRVPKHLREEKVVECVHCGCQGCASGD | not soluble
9 | MRIEVRLFALYREQAGTDRLALELPEGARVREAQKALEERFPRLRLEGGMAAVNQALAGAETPLKEGDEVAFLPPVSGGQDSYGLTQEPLDLEALVAWATAPEYGAVVSFLGTTRSPNRGEEVAFLEYEAYPEMAEKVMAEILAEMRARWPLGRIALWHRLGRVDPGEASIAIVVSARHRKEAFAACQYAIDRVKQILPVWKKEHRKDGSFWVEGFAPEDKRL | soluble
10 | MAHHHHHHMGTLEAQTQGPGSMQMNMVETEPVQGCRDFPPETMRLRKYLFDVFHSTARKFGFEEYDSPVLESEELYIRKAGEEITEQMFNFITKGGHRVALRPEMTPSLARQLLAKGRSLLLPAKWYSIPQCWRYEAITRGRRREHYQWNMDIIGVKSVSSEVELVCAACTAMQSLGLSSKDVGVKINSRKILQTVVEQAGVSADKFAPVCVIVDKMEKLPREEVVAQLAAIGLESNVVDAITSTLSLKTIDEIAQRIGEEHEAVRELRDFITQIEAYGFGDWVIFDASVVRGLAYYTGIVFEGFDRDGNFRALCGGGRYDNLLTTYGSPTAVPCVGFGFGDCVIVELLNEKKLLPELHHVVDDLVIPFDETMRPHALSILRRLRDAGRSADIVFDKKKVVQAFNYADRIGALRAVLVAPDEWARGEVRVKMLREGAGREEGANERGIVLPVDKIV | soluble
11 | MGSDKIHHHHHHMTEADLFVSQFLTEKLTALFPNVPVLSEENCHISFEERKNWKEYWLIDPLDGTQQFINRTDQFSVLITLVRKNKPVLSVIHAPILSTTYYAMCDFGTFKKQLDQVKKLTKNTTNFDRPLRIAVGATTSQEKVRSILPKDFPCEFVVVGSSSLKSGLVAEGAVDCYVRLGQTGEWDTAGAEVLLGETHGAIFDSHFEPLTYNQRETLINPHFVMVGDQSFDWRSIFQFN | not soluble
12 | MSLDRKGNPVVRWDNNWLGSNEPCEDRWATDLVRRDGAAGGAVGKAVNFWTRWYRGDSIPSESAPAEEDEAARGKHDLMLFSIMDGHAGDATSRLLQKSLHPTISMALAGLQRGNVPPRHNVWERWAGYLNPWYWLGTDTVWTPENVSKTIQNAFVQLDDNICQTPLKLLPTLSSPSTSSPTPRETLVALAQPAAAGACAISTLVDSENDDLYVAVTGDCRAVAGWEGEDGKWRCDVLSEDQMGDNPKEIERMRSEHPASERDTVIRNGRVQGGLQPTRAFGDAVYKWTNAQAAQIADAFRAQGERPRPGRPWNYTPPYVTARPEVTYRKLNAHTGEKLRFIVLATDGLWDRITSEESTLLLASYLSHPSHAPLPKSALPRREGHHHHHH | soluble
13 | MSLAARRALHFVFKVGNRFQTARFYRDVLGMKVLRHEEFEEGCKAACNGPYDGKWSKTMVGFGPEDDHFVAELTYNYGVGDYKLGNDFMGITLASSQAVSNARKLEWPLTEVAEGVFETEAPGGYKFYLQNRSLPQSDPVLKVTLAVSDLQKSLNYWCNLLGMKIYEKDEEKQRALLGYADNQCKLELQGVKGGVDHAAAFGRIAFSCPQKELPDLEDLMKRENQKILTPLVSLDTPGKATVQVVILADPDGHEICFVGDEAFREGHHHHHH | soluble
14 | MIFMHPKTLEILKMFEEINKIPRRSKNEEKLALWLMEWAKNHNFEAKTDALNNVLIKVPPTPGYENSPAIVLQGHMDMVCEKCRDSGHDFSKDPIICIYEGDWLRGDGTSIGADNGIALAIGLVLAESGIKGEIEHPPLELLFTVDEETGLTGASGLEEDFFEGRILLNLDSEDEGIFILGCAGGQNSRIFLPLQWESFDYGKGSGFGLFRISAEGLEGGHSGVEIHRQRANGIQLLARMLSALKEKVGKENLRLVFFSGGSVHNAIPNYAEAFIVLSRNNEKQAEDFVSGLQKSFRGEYAVSDPEITLQLKEVENGIIFEASGGKITRKEVPSDRVFSVETEEKLYGVLLGMPHGVHRVSDTIPGLVETSNNLATVRTGEKEVRIVSSQRSSVMSRLAEVTEKVETVAKLAGARVEHECGYPAWEPDLQSGLLMKCRHAYSGTFGKEPEIKVVHAGLECGVIGSKCECIEMISFGPTIKDPHSPAERVYIPSIEKVWVFLENLMKSYRLEHHHHHH | soluble
15 | TDIVLWDKPGEKVLLLGNQAIVRGALEGNIGVYAAYPGTPSSEITDTMAMVAKKAGVYMEYSTNEKVAFETALSASWAGLRAMTAMKHVGLNVAMDSFMTVSYMGINGGLIVVVADDPSMWSSQNEQDTRAIAKFANIPVLEPSSVQEAKDMVKYAFEISEKYGQMVILRTTTRSSHMRGDVVLGELPQEIKEGKRKFGNFKKNPEKYVDIPAFQRPKHPWLLETIEKFREEFNTSPFNWIEGPEDAKVGIIAPGLSYAYVKEALAWLGIDNVKILKLGTPFPVPYGLLEKFFNGLERVLIVEELEPVVEEQVKVWAFDNNINIEIHGKDLVPRVYEMTTRRAVEAVAKFLGVETPINFQEIDEKYKKVQEMVPPRPPSLCPACPHRNTFFAIRKAATPRAIFPSDIGCYTLGVLPPLKTVDTTIAMGGSIGVAHGLSIALNGALGEEQRKTGKEKKIIVATIGDSTFFHTGLPALANAIYNRSNVLIVVMDNMVTAMTGDQPNPGTGETPHGPGKRILIEEVARAMGADFVAVVDPYDIKETYETIKKALEVEGVSVVVSRRACALYRIGQLRREGKQWPIYQVNEEKCTGCKICINAYGCPAIYWDAEK | not soluble
16 | GSHMLPSCKEDEYPVGSECCPKCSPGYRVKEACGELTGTVCEPCPPGTYIAHLNGLSKCLQCQMCDPAMGLRASRNCSRTENAVCGCSPGHFCIVQDGDHCAACRAYA | soluble
17 | MARKSKGSRSSTRAVKQTDHFQVDVKLQSRPDHVRAPRANNENVNYTPVKEAKIQKILDHQLYNTHYVEYQVEMSDGTEEMLTEFDFDNKKTQKMLAEYKFKVTELEDDGSKEYVVEKIVAHRYPNDRLNQPLYLVMWRGFPDPVSNTEMWGEELENCQELLDAYNEEHDIDLSKTVMNKPPKKSKHQDTSDDSEESEDEEEKSPRKRSSKKRRAASVSDSDSDSDSDFDKKKWKKNKAKRSKRDDSSDDDSEMERRRKKSKKSKKSKKFKKSEKRKRAVNDSSSDDEDEEEKPEKRSKKSKKAVIDSSSEDEEEEKSSKKRSKKSKKESDEEQQASDSEEEVVEVKKNSKSPKKTPKKTAVKEESEESSGDEEEEVVKKKKSSKINKRKAKESSSDEEEEVEESPKKKTKSPRKSSKKSAAKEESEEESSDNEEEEEVDYSPKKKVKSPKKSSKKPAAKVESEEPSDNEEEEEEVEESPIKKDKTPRKYSRKSAAKVESTESSGNEEEEEVEESPKKKGKTPRKSSKKSAAVEESDNEEEDVEESPKKRTSPRKSSKKRAAKEESEESSDNEVEEVEDSPKKNDKTLRKSPRKPAAKVESEESFGNEEEEEVEESPKKKGKTPRKSSKKSAAKEESEESSDDEEEEQAEETNGSHTESPTKSKTDESDNSTSSDEDDE | not soluble
18 | MSLAAVPAPDPGPDAGAIWHYGDPLGEQRAGQADAVLVDRSHRAVLTLDGGDRQTWLHSISTQHVSDLPEGASTQNLSLDGQGRVEDHWIQTELGGTTYLDTEPWRGEPLLAYLRKMVFWSMVTPRAADMAVLSLLGPRLAEERVLDALGLDVLPAEWLAVPLAGGGIVRRMPDGLAGQIELDVVVKRGDRADWQRRLTQAGVRPAGIWAYEAHRVAHRVPARRPRLGVDTDERTIPHEVGWIGGPGAGAVHLNKGCYRGQETVARVHNLGRPPRMLVLLHLDESVQRPSTGDAVLAGGRTVGRLGTVVEHVELGPVALALLKRGLPGDTALVTGPEAEVAAVIDVDSLPPADDVGAGRRAVERLRGGIREGHHHHHH | soluble
19 | MEVDNVKPSSSVPQRNWEKENNVQNVDSIFEYNNKQQVEIRNAKPWDKDPHYFKQIKISAIALLKMTMHAKRGGNLEIMGLLQGRIDANSFIILDVFALPVEGTETRVNAQAQAYEYMTVYSEMCDTEGRKEKVVGWYHSHPGYGCWLSGIDVSTQTLNQKFQEPWVAIVIDPLRTMSAGKVDIGAFRTYPEGYRPPDDVPSEYQSIPLAKIEDFGVHCKRYYSLDVSFFKSQLDAHILTSLWNSYWISTLSSSPLFSNVEFLNNQIQDINQKLSAVDKKLQLNDRSVDGHEALMKVVTDAKAVGDELETGRISHLVKQLLFARQAGGGCGCSHASAGSPMDIAVATEPEKAGPSPSAPEPAVEMADA | not soluble
20 | MNNRSAVRILRLPAVIQKTGMARATIYDWLNPKSPRYDATFPKKRMLGVKSVGWIEAEIDEWLSQRCKLI | soluble
